Experimental data from paper PMC8607881 (Nature, 2021).

B1: Fab6 (Fab, V domains shown)
VH: EVQLVESGGGLVQPGGSLRLSCAASGFNFSSYSIHWVRQAPGKGLEWVAYISSYYGSTYYADSVKGRFTISADTSKNTAYLQMNSLRAEDTAVYYCARHEYGWWNDRWGLDYWGQGTLVTVSS
VL: DIQMTQSPSSLSASVGDRVTITCRASQSVSSAVAWYQQKPGKAPKLLIYSASSLYSGVPSRFSGSRSGTDFTLTISSLQPEDFATYYCQQSSWYGPFTFGQGTKVEIK
B2: C-terminally truncated bovine GRK1 (residues 1-535) with C-terminal His6 (enzyme, UniProt P28327 1-535, looked up)
chain: MDFGSLETVVANSAFIAARGSFDASSGPASRDRKYLARLKLPPLSKCEALRESLDLGFEGMCLEQPIGKRLFQQFLRTHEQHGPALQLWKDIEDYDTADDALRPQKAQALRAAYLEPQAQLFCSFLDAETVARARAGAGDGLFQPLLRAVLAHLGQAPFQEFLDSLYFLRFLQWKWLEAQPMGEDWFLDFRVLGRGGFGEVFACQMKATGKLYACKKLNKKRLKKRKGYQGAMVEKKILAKVHSRFIVSLAYAFETKTDLCLVMTIMNGGDIRYHIYNVDEDNPGFQEPRAIFYTAQIVSGLEHLHQRNIIYRDLKPENVLLDDDGNVRISDLGLAVELKAGQTKTKGYAGTPGFMAPELLLGEEYDFSVDYFALGVTLYEMIAARGPFRARGEKVENKELKQRVLEQAVTYPDKFSPASKDFCEALLQKDPEKRLGFRDGSCDGLRTHPLFRDISWRQLEAGMLTPPFVPDSRTVYAKNIQDVGAFSTVKGVAFEKADTEFFQEFASGTCPIPWQEEMIETGVFGDLNVWRPDG
B3: hyper-phosphorylated rhodopsin (light activated) (receptor, bovine, UniProt P02699 1-348, looked up)
chain: MNGTEGPNFYVPFSNKTGVVRSPFEAPQYYLAEPWQFSMLAAYMFLLIMLGFPINFLTLYVTVQHKKLRTPLNYILLNLAVADLFMVFGGFTTTLYTSLHGYFVFGPTGCNLEGFFATLGGEIALWSLVVLAIERYVVVCKPMSNFRFGENHAIMGVAFTWVMALACAAPPLVGWSRYIPEGMQCSCGIDYYTPHEETNNESFVIYMFVVHFIIPLIVIFFCYGQLVFTVKEAAAQQQESATTQKAEKEVTRMVIIMVIAFLICWLPYAGVAFYIFTHQGSDFGPIFMTIPAFFAKTSAVYNPVIYIMMNKQFRNCMVTTLCCGKNPLGDDEASTTVSKTETSQVAPA
modifications: 6–8 phosphates incorporated per rhodopsin (7 possible sites in the cytoplasmic tail)
B4: light activated rhodopsin (Rho*) (receptor, bovine, UniProt P02699 1-348, looked up)
chain: MNGTEGPNFYVPFSNKTGVVRSPFEAPQYYLAEPWQFSMLAAYMFLLIMLGFPINFLTLYVTVQHKKLRTPLNYILLNLAVADLFMVFGGFTTTLYTSLHGYFVFGPTGCNLEGFFATLGGEIALWSLVVLAIERYVVVCKPMSNFRFGENHAIMGVAFTWVMALACAAPPLVGWSRYIPEGMQCSCGIDYYTPHEETNNESFVIYMFVVHFIIPLIVIFFCYGQLVFTVKEAAAQQQESATTQKAEKEVTRMVIIMVIAFLICWLPYAGVAFYIFTHQGSDFGPIFMTIPAFFAKTSAVYNPVIYIMMNKQFRNCMVTTLCCGKNPLGDDEASTTVSKTETSQVAPA
modifications: all-trans retinal (Meta II state)
B5: Fab1 (Fab, V domains shown)
VH: EVQLVESGGGLVQPGGSLRLSCAASGFNLYSSSIHWVRQAPGKGLEWVASIYSYYGSTSYADSVKGRFTISADTSKNTAYLQMNSLRAEDTAVYYCARYEGWWWANTYALDYWGQGTLVTVSS
VL: DIQMTQSPSSLSASVGDRVTITCRASQSVSSAVAWYQQKPGKAPKLLIYSASSLYSGVPSRFSGSRSGTDFTLTISSLQPEDFATYYCQQYYEWLSLFTFGQGTKVEIK

Assays:
[1] = molecular target: biotinylated Avi-tagged GRK1 (residues 1-535, His6-Avi), Sgv-bound (Bos taurus (Bovine)., UniProt P28327, biotin on the Avi-tag); experiment: ELISA
[2] = molecular target: B4; experiment: cross-linking
[3] = molecular target: B2; experiment: cross-linking

Binder	Kd [1] [nM]	binding result [3]	further results
B1	~2.5		
B2			stoichiometry N [2]: 1
B3		binds	
B4		binds	
B5	~2.5		
